Consider 22 sequences from the DeepSol protein solubility set.

A short description of this data set: soluble on expression in E. coli; label from the status in PepcDB or PDB records.
As for “MVNSSKSILIHAQNKNGTHEEEQYLFAVNNTKAEYPRDKTIHQLFEEQVSKRPNNVAIVCENEQLTYHELNVKANQLARIFIEKGIGKDTLVGIMMEKSIDLFIGILAVLKAGGAYVPIDIEYPKERIQYILDDSQARMLLTQKHLVHLIHNIQFNGQVEIFEEDTIKIREGTNLHVPSKSTDLAYVIYTSGTTGNPKGTMLEHKGISNLKVFFENSLNVTEKDRIGQFASISFDASVWEMFMALLTGASLYIILKDTINDFVKFEQYINQKEITVITLPPTYVVHLDPERILSIQTLITAGSATSPSLVNKWKEKVTYINAYGPTETTICATTWVATKETIGHSVPIGAPIQNTQIYIVDENLQLKSVGEAGELCIGGEGLARGYWKRPELTSQKFVDNPFVPGEKLYKTGDQARWLSDGNIEYLGRIDNQVKIRGHRVELEEVESILLKHMYISETAVSVHKDHQEQPYLCAYFVSEKHIPLEQLRQFSSEELPTYMIPSYFIQLDKMPLTSNGKIDRKQLPEPDLTFGMRVDYEAPRNEIEETLVTIWQDVLGSHHHHHH”, the “soluble on expression in E. coli” value is reported as “soluble”.
Next, “MVPAAQQTATAPDAALTFPEGFLWGSATASYQIEGAAAEDGRTPSIWDTYARTPGRVRNGDTGDVATDHYHRWREDVALMAELGLGAYRFSLAWPRIQPTGRGPALQKGLDFYRRLADELLAKGIQPVATLYHWDLPQELENAGGWPERATAERFAEYAAIAADALGDRVKTWTTLNEPWCSAFLGYGSGVHAPGRTDPVAALRAAHHLNLGHGLAVQALRDRLPADAQCSVTLNIHHVRPLTDSDADADAVRRIDALANRVFTGPMLQGAYPEDLVKDTAGLTDWSFVRDGDLRLAHQKLDFLGVNYYSPTLVSEADGSGTHNSDGHGRSAHSPWPGADRVAFHQPPGETTAMGWAVDPSGLYELLRRLSSDFPALPLVITENGAAFHDYADPEGNVNDPERIAYVRDHLAAVHRAIKDGSDVRGYFLWSLLDNFEWAHGYSKRFGAVYVDYPTGTRIPKASARWYAEVARTGVLPTA”: “soluble”.
The result for “MVPELMFDEPRPGRPPRHLADLDAAGRASAVAELGLPAFRAKQLAHQYYGRLIADPRQMTDLPAAVRDRIAGAMFPNLLTASADITCDAGQTRKTLWRAVDGTMFESVLMRYPRRNTVCISSQAGCGMACPFCATGQGGLTRNLSTAEILEQVRAGAAALRDDFGDRLSNVVFMGMGGAAGQLRQGVGRSSAHYRAAAVRFRDFGPRGDGVDGGSGPCYPQPCRRAARRDPGAVAARPRRRVARYTSSGQQPVEDQRSARCGPVLRQCDRATGVY” reads “soluble”; that for “MVPSEGTWVYVVNLRRVYWGRRTRRAIRAVRMVREFVRRHTKADEVVIDNELNNYIWSRSREKPPARVKIIVSIREEEPEEGGERIRKAVVRLAGRKLRPGRYKG”, “soluble”.
Next, “MVQSCSAYGCKNRYDKDKPVSFHKFPLTRPSLCKEWEAAVRRKNFKPTKYSSICSEHFTPDCFKRECNNKLLKENAVPTIFLCTEPHDKKEDLLEPQEQLPPPPLPPPVSQVDAAIGLLMPPLQTPVNLSVFCDHNYTVEDTMHQRKRIHQLEQQVEKLRKKLKTAQQRCRRQERQLEKLKEVVHFQKEKDDVSERGYVILPNDYFEIVEVPA”: “soluble”.
As to “MVRAPIDGIVANRSAHTGSWVEGGTSLVSLVPVSELWVDANYKENQIAGMKPGMKAEIRADILKGEVFHGHIESLSPATGASFSLIPIENATGNFTKIVQRVPVRIAFDDAKELKQLLRPGLSVTVSVDER”, the “soluble on expression in E. coli” value is listed as “not soluble”.
The result for “MVRESIPKEGENIKIQSYKHDGKIHRVWSETTILKGTDHVVIGGNDHTLVTESDGRTWITREPAIVYFHSEYWFNVICMFREDGIYYYCNLSSPFVCDEEALKYIDYDLDIKVYPNGKYHLLDEDEYEQHMNQMNYPHDIDIILRRNVDILQQWIEQKKGPFAPDFIKVWKERYKKIRQY” reads “soluble”.
In the case of “MVRKALDGQEVVTASAETLRVEALEVRLGENLVLKEVDLAVEPGEIVALLGPSGSGKTTLLRAVAGLLRPTGGRILLGKEVFFDGKKGVFLPPERRNLGLVFQSYALWPQRTVYENVAYGLRLRKVPEKAVRERVLGLLDRLGLTGLERRYPGALSGGQQQRVSLARALAYDPKLLLLDEPLSNLDAKLRDQARVWLRETLKATGKAALFVTHDQGEAMAIADRIALLNEGRMEQVGTPEELYRNPKTLFVADFLGNPNVVEALVVGLEGSTARLELAGFPLRARAMGALVPGRLAKLVLRPEALRPAGVGEVNALEGALAHSLYLGSHYEHWVRVGDALLRFYSPLPLGEARVRLAVDPEAALAYPG”, the “soluble on expression in E. coli” value is listed as “soluble”.
The result for “MVRRLLALSRPLYWLYEKRLLREVKRGPMPRHLGLILDGNRRYARALGLSPTKGHEFGVQKAYEVLEWCLEMGIKTVTVWVFSTDNFKRPPEEVETLMNLFLREAERMAEDHRILEHQVRVRFIGRREGFSPEVVRAIERLERRTEGHRGMFLNIAMGYGGREEIVDAVKRLLLEAEARGLSPKEVAEGLTPEDIARHLYTAGLPDPDFIIRTSGEIRLSGFLLWQSAYSEFYFADVLWPEFRKIDFLRALRSYQARERRFGR” reads “soluble”; that for “MVSEEEEEEDGDAEETQDSEDDEEDEMEEDDDDSDYPEEMEDDDDDASYCTESSFRSHSTYSSTPGRRKPRVHRPRSPILEEKDIPPLEFPKSSEDLMVPNEHIMNVIAIYEVLRNFGTVLRLSPFRFEDFCAALVSQEQCTLMAEMHVVLLKAVLREEDTSNTTFGPADLKDSVNSTLYFIDGMTWPEVLRVYCES”, “not soluble”.
Next, “MVSFKAGINLGGWISQYQVFSKEHFDTFITEKDIETIAEAGFDHVRLPFDYPIIESDDNVGEYKEDGLSYIDRCLEWCKKYNLGLVLDMHHAPGYRFQDFKTSTLFEDPNQQKRFVDIWRFLAKRYINEREHIAFELLNEVVEPDSTRWNKLMLECIKAIREIDSTMWLYIGGNNYNSPDELKNLADIDDDYIVYNFHFYNPFFFTHQKAHWSESAMAYNRTVKYPGQYEGIEEFVKNNPKYSFMMELNNLKLNKELLRKDLKPAIEFREKKKCKLYCGEFGVIAIADLESRIKWHEDYISLLEEYDIGGAVWNYKKMDFEIYNEDRKPVSQELVNILARRKT”: “soluble”; “MVSQLACIIWTGIIAGRTATLTEGDNMKLPKWLEEKYDLLWDKFEDREFRSTEALEILGKEHLIDEKSLSAAISEMRKKGWIETRKDPDDERRRIYMLRPKSEIIQDYLTLKDDKLGRADIERILKGAADLIRTRVDYKFILVLLFMKQMSDKWMMEYQKAYEDAIKEYGLSEEEARLEARNSAYHDLDIKEEYLWDNIRKDVENLPIKFAGALKNLAELNPAFKDVVDAFDFVEFTQSQENREILRQLVELFSEKKLTNVDPDILGDAYEWILRYFAPTKAKEGEVYTPREVIRLLVEILDPKPGESVYDPASASNGMLIISHKYVKETYGEAERLFLYGQEVNRKTMALGSMNMYIHDIKDHHIAHGDTLLYPKFKESDGIMRFDVVIANPPWNQDGYGEDTLKKGDYWRERFRYGFVNKQSADWAWIQHMIASAKDDGRIGVVIDNGCLFRGGREKSIRSAVLEDDLIEAVILLPEKLFYNTGAPGAIIILNKDKDEERRGKVLFINAGEEYEKHPEVRKLNILSDGNIERILEAYREFQGDDGFSRVVDLDEIRENDYNLNVPLYAFPEEELEDIDVAGEWMRLSEIEEELAEVDERIRGYLDELGYMGVKM”: “soluble”.
The result for “MVSSKLATPLSIQGEVIYPDDSGFDAIANIWDGRHLQRPSLIARCLSAGDVAKSVRYACDNGLEISVRSGGHNPNGYATNDGGIVLDLRLMNSIHIDTAGSRARIGGGVISGDLVKEAAKFGLAAVTGMHPKVGFCGLALNGGVGFLTPKYGLASDNILGATLVTATGDVIYCSDDERPELFWAVRGAGPNFGVVTEVEVQLYELPRKMLAGFITWAPSVSELAGLLTSLLDALNEMADHIYPSVFVGVDENRAPSVTVCVGHLGGLDIAERDIARLRGLGRTVSDSIAVRSYDEVVALNAEVGSFEDGMSNLWIDREIAMPNARFAEAIAGNLDKFVSEPASGGSVKLEIEGMPFGNPKRTPARHRDAMGVLALAEWSGAAPGSEKYPELARELDAALLRAGVTTSGFGLLNNNSEVTAEMVAEVYKPEVYSRLAAVKREYDPENRFRHNYNIDPEGS” reads “soluble”.
With “MVSSLIRLRGGGLAEWNPEERPSIPAEIKRRVLVEAGHRCAIPTCRHIEVDIHHIVPWRTCQAHEYENLIALCPNCHRRADREEIDRKSLKLYKLNLRFVHEKYSQIEMDMLFDLARAPDGVGAPWTPFMLIFFKRVIDSGFVNVYELPGGIFVNGIKSSPSYLTITELGRNFISELGDRDLLALEHHHHHH”, the “soluble on expression in E. coli” value is given as “not soluble”.
For “MVVLNTPGKYQYDLRNHLLVNLFPIALDAEITTSNVNKHQLHRSNIPAALSGNSGITDYVPFSAERNAAMVIWRTAIDSRPAVCNDEEGTPGTL”, the “soluble on expression in E. coli” value is “not soluble”.
Turning to “MVWDVETAKRFLEIIKDEPIYYPALIALHTGMRAGEILSLKWCDVNFETRVISIVKSERKNRGLKTVNLKTKTSKRAVYMNDILYKELKNLYEITKPKPDDFVCPRLPTGNLTVNYLSRKFKKLVKKHNFPLIRFHDLRHTFATLMLSLGVNTKIVAEILGHSDIKLTADTYSHVLPTMQEEAMKEFVKLWKLEHHHHHH”, the “soluble on expression in E. coli” value is “not soluble”.
Next, “MVWTYTYDLDNQLISANKTGSSNSLAYDGAGRLRQTTLAGTITGLTYDGVDLVAEYNSGGTLLRRYVHGPGVDEPLVWYEGTTTTNKTWLYQDQLGSVIGTANSAGTSTAIHSYGPYGEPNIATGIRFRYTGQQFLGSLNLYYYKARFYSPALGRFLQTDPIGIADDLNLYAYVGNNPINFNDPSGLSAAAASMLLGKLGSWGRENAGTLTEIGIGFTPAGFYTDLYSAVAGRTPITGDSLSGWERVAILIPGVSEIRNAGRIGSSIQGVAESTIKQVNPTNLIPTQTRSEMSGSQIKRLEKDMRTNGFDQNKPIDAVRRTDGRLEIQDGHHRVEAAKRAGIDQIPVQIWEKLEHHHHHH”: “not soluble”; “MVYFGRAKTLSHRHPNTGSGGCVFSLKTVLLYQQDSYLREFEARVEEASGGRVVLDRTAFHPGPHGGLDTDTGYIFYGDKRYRVVRAAVEGDVVAHYLDSDTATLEPGAVVKGVIDWERRYRMMRLHTFSHILAAVLYEKHDVLVTGGHITPDYGKDDFSIEGGGWREVIEEAFREANEIASRCIEVKVYWLPREEALKIPGIVKLANKLPPEVETLRIVEIPGVDVQADGGPHVRNTCEIGRVVITKLESKGKRRKRVYYTLEEALEPTPEAP”: “not soluble”; “MVYKTKLGEIEISDESIFTFEKGIPGFEHLRKFALVFPQETFPIGWLLSLEDSEVGLPVVDPKLVRADYDPAVPSEDLEEIEAENQEALLFFCVLTIPPGKPEKTTINLRAPIILNQKKKKGIQTILENEDYQLRHLLSEEIERSKTVVAAALEHHHHHH”: “soluble”.
Next, “MWAQKTLQLKARSRGFHLITDEIEQQLPQIHELSVGLLHLFIQHTSASLTLNENADPTVRMDMEAHFNKFVQERAPYYQHTYEGDDDMPAHIKASLLGSSVTIPIQNGRLALGTWQGIYLGEHRDFGGSRRIIATINGELEHHHHHH”: “soluble”.
As for “MWDVIVVGGGPSGLSAALFLARAGLKVLVLDGGRSKVKGVSRVPNYPGLLDEPSGEELLRRLEAHARRYGAEVRPGVVKGVRDMGGVFEVETEEGVEKAERLLLCTHKDPTLPSLLGLTRRGAYIDTDEGGRTSYPRVYAAGVARGKVPGHAIISAGDGAYVAVHLVSDLRGEPYKDHAL”, the “soluble on expression in E. coli” value is “soluble”.
Next, “MWFFNKNLKVLAPCDGTIITLDEVEDEVFKERMLGDGFAINPKSNDFHAPVSGKLVTAFPTKHAFGIQTKSGVEILLHIGLDTVSLDGNGFESFVTQDQEVNAGDKLVTVDLKSVAKKVPSIKSPIIFTNNGGKTLEIVKMGEVKQGDVVAILK”: “soluble”.
